Square brackets hold non-standard residues; d marks the D form. Ends that are not written are not given here.
Details: in vivo

For “Pro--Val--Thr--Lys--Pro--Gln-D-Ala--NH2 (PVTKPQ[dA]-NH2; N-terminus assumed; SMILES CC(C)[C@H](NC(=O)[C@@H]1CCCN1)C(=O)N[C@H](C(=O)N[C@@H](CCCCN)C(=O)N1CCC[C@H]1C(=O)N[C@@H](CCC(N)=O)C(=O)N[C@H](C)C(N)=O)[C@@H](C)O) [P^D1]”, the “quantity found in the organism” value was “greater than 10%”.
